Source: US20220396758

Experiments:
[1] = tested on: substrate protein S1 (single N-terminal Smt3 domain, 65-amino-acid charged flexible tail, C-terminal 11 amino acid ssrA tag)
[2] = tested on: substrate protein S2-148 (two Smt3 domains separated by an extended 148 amino acid linker, charged tail, C-terminal ssrA tag)
[3] = tested on: substrate protein S2-35 (two Smt3 domains separated by a 35 amino acid linker, charged tail, C-terminal ssrA tag)

How did the “ClpX-dependent ionic current ramp (ramping state iii), average current” value [1] turn out when “covalently-linked trimer of an N-terminal truncated ClpX variant (ClpX-ΔN3)” was run?
Its value is “a progressive downward current ramp reaching an average of ~10 pA with a median duration of 4.3 seconds”.

And the “ClpX-dependent ionic current ramp (ramping state iii), median duration” value [1]?
The value was “a progressive downward current ramp reaching an average of ~10 pA with a median duration of 4.3 seconds”.

What about the “ClpX-dependent ionic current ramp (ramping state iii), number of events” value [1] of the same substance?
Its value is “This current ramp was observed with protein S1 a total of 45 times over ~5.5 hours of experimentation when ClpX and ATP were present; in contrast, the ramp was never observed following state ii when ClpX and ATP were absent from the trans solution over ~2.3 hours of experimentation”.

What about the “translocation events that included ramping state iii, number of events” value [2] of the same substance?
Its value is “Translocation events that included ramping state iii were observed ... 66 times for protein S2-148 (4.3 hours of experimentation), when ClpX and ATP were present. In the absence of ClpX/ATP, these ramping states were never observed ... for S2-148 (1.2 hours of experimentation)”.

What about the “second ramping state vi, ionic current” value [3] of the same substance?
The value was “This was followed by a ~8.5 pA state (FIG. 2C, vi) that closely resembled ramping state iii”.

And the “translocation events that included ramping state iii, number of events” value [3]?
The value was “Translocation events that included ramping state iii were observed 62 times for protein S2-35 (7.3 hours of experimentation) ... when ClpX and ATP were present. In the absence of ClpX/ATP, these ramping states were never observed for S2-35 (1.7 hours of experimentation)”.
